The source of these data is patent US9518088B2, “Peptide-phospholipid conjugates” (Indiana University Research and Technology Corporation, priority 2011, dated 2016).

Data set [1] is described as follows: Solubility in water / aqueous buffers.
Data set [2] is described as follows: Stability of the conjugates.
A further data set deals with macrophages and T-cells. In words: Affinity for macrophages and T-cells. The class given is cell-based.
The target of a further data set is T1, CD36 macrophage receptor (Mus musculus, UniProt Q08857).
T1 construct: endogenous in cells; host or cells: J774 murine macrophage cell line
In words: CD36 macrophage receptor binding competition assay (biotinylated CuOxLDL binding to J774 macrophages). Details: species or system murine. From the text: Data are given as relative light units (RLU) per 100 ms (milliseconds). The plot is a representative experiment chosen from among at least four experiments. […] Data are shown as mean±SD (Standard Deviation) of B/B0 from 2 independent experiments with triplicate determination. […] Data are shown as mean±SD of B/B0 from two independent experiments with triplicate determination. Data in FIG. 3B and FIG. 3C were produced in parallel experiments.
The fixed concentration of biotinylated CuOxLDL (1.8 pmol apoB/mL, corresponding 1 μg apoB/mL or 0.14 nmol PC-epitopes/mL) was preincubated with compound 6, the control peptide TGTKGG, CuOxLDL, or native LDL, added at the concentrations indicated on the graphs, and then tested for binding as described in the experimental section. The highest CuOxLDL concentration tested was 200 μg/mL, which corresponds to approximately 28.3 nmoles of PC-epitopes/mL, as estimated from the previous observation that 1 mole of apoB-100 from CuOxLDL contains 78±15 moles of covalently attached phosphorus^10, which it is assumed are PC-epitopes only. The concentration of native LDL is plotted at equal protein concentration to CuOxLDL (and thus not as molar concentration of PC-epitopes). Each data point represents the mean and SD of 2 independent experiments of triplicate wells.
Each of peptide-phospholipid conjugates 6 and 23-27 were tested as competitors in a CD36 macrophage receptor binding competition assay, where fixed concentrations of CuOxLDL were incubated with the serially diluted competitor and controls in PBS buffer. The IC50 of each competitor is reported below in Table 1, confirming the affinity of the compounds of the invention for the CD36 macrophage receptor:
Binding of biotinylated OxLDL ligands to murine macrophages plated in microtiter wells was assessed by a chemiluminescent binding assay. Isolated human LDL was biotinylated according to manufacturer's protocol (Catalog No. 21326; Pierce Biotechnology). Native and biotinylated native LDL were subjected to copper sulfate oxidation in parallel to prepare unlabelled and biotinylated CuOxLDL ligands, respectively. It has been previously shown that CuOxLDL contains approximately 78 moles of PC-epitopes per mole of apoB-100 (the sole protein on LDL). The biotinylated native LDL and CuOxLDL ligands of equal protein concentration were serially diluted and tested for binding to adherent macrophages. The specificity of the binding of biotinylated CuOxLDL to macrophages was tested in competition experiments, where fixed concentrations of biotinylated CuOxLDL were incubated with the serially diluted competitor and controls in PBS. The ligand-competitor solutions were incubated overnight at 4° C. Murine macrophages from the J774 cell line were cultured in 10% fetal bovine serum in DMEM (DMEM-10) and plated in 100 μL L929-fibroblast conditioned media at 100,000 or 25,000 cells/well, respectively, in sterile 96-well flat-bottom white plates (Greiner Bio-One). The plating media consisted of 20% L929-fibroblast conditioned DMEM-10 and 80% fresh DMEM-10 and served as a source of growth factors, including macrophage colony-stimulating factor. After 72 hours, the plates were washed gently 5 times with PBS using a microtiter plate washer (Dynex Technologies, Chantilly, Va.), and wells were blocked with ice-cold 200 μL DMEM for 30 min, while plates were kept on ice. After washing, macrophages were incubated with ice-cold ligand and ligand-competitor solutions (100 μL/well) for 2 hours on ice, washed again, and fixed with ice-cold 3.7% formaldehyde in PBS for 30 min in the dark. After fixing the macrophages, the remaining part of the assay was carried out at room temperature. Macrophage-bound biotinylated OxLDL ligands were detected with NeutrAvidin-conjugated alkaline phosphatase (Pierce Biotechnology), LumiPhos 530 (Lumigen, Southfield, Mich.), and a Dynex Luminometer (Dynex Technologies). […]

Like-named read-outs stand apart in the source and are kept apart here.

T1 sequence (Q08857 whole entry): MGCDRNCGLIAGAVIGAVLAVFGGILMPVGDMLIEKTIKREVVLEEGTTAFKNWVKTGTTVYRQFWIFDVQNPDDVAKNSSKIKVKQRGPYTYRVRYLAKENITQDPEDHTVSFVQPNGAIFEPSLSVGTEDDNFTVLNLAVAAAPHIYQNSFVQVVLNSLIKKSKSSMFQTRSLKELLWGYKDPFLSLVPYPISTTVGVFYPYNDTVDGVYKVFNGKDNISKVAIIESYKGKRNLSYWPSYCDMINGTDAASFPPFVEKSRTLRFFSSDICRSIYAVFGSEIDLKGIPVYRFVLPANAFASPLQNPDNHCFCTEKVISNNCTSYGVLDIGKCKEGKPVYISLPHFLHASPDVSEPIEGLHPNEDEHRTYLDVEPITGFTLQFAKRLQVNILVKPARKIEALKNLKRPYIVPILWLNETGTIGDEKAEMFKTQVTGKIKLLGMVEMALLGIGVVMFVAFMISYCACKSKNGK

Regarding `CCCCCCCCCCCCCCCC(=O)OC[C@H](COP(=O)([O-])OCC[N+](C)(C)C)OC(=O)CCCCN(C)CCCC[C@H](NC(=O)[C@@H](NC(=O)CNC(=O)[C@@H](NC(C)=O)[C@@H](C)O)[C@@H](C)O)C(=O)NCC(=O)NCC(=O)O` [Compound 6], in data set [1], the “water solubility / solubility in aqueous buffers” value is recorded as “soluble in aqueous buffers”. Besides, the stability entry in data set [2] is listed as “stable”. Further, in the data set on macrophages and T-cells, the “affinity for macrophages and T-cells” value was “showed affinity for macrophages and T-cells”. For the same molecule, on CD36 macrophage receptor, the IC50 (commonly the point on the concentration scale where inhibition reaches its midpoint) is 60 µM. The “competition with biotinylated CuOxLDL binding to macrophages” value on CD36 macrophage receptor (J774 macrophages, fixed biotinylated CuOxLDL 1.8 pmol apoB/mL (1 μg apoB/mL), FIG. 3B/3C, mean of 2 independent experiments, triplicate wells) is reported as “more than 99%”.
For `CCCCCCCCCCCCCCCC(=O)OC[C@H](COP(=O)([O-])OCC[N+](C)(C)C)OC(=O)CCCCN(C)CCCC[C@H](NC(=O)[C@H](C)NC(C)=O)C(=O)NCC(=O)NCC(=O)O` [Compound 24], the IC50 at CD36 macrophage receptor was found to be 131 µM.
Take `CCCCCCCCCCCCCCCC(=O)OC[C@H](COP(=O)([O-])OCC[N+](C)(C)C)OC(=O)CCCCCCCCC[C@H](NC(=O)[C@@H](NC(=O)CNC(=O)[C@@H](NC(C)=O)[C@@H](C)O)[C@@H](C)O)C(=O)NCC(=O)N[C@@H](Cc1ccc(O)cc1)C(=O)O` [Compound 5]: the “water solubility / solubility in aqueous buffers” value in data set [1] is reported as “poor water solubility”. Also, the stability entry in data set [2] is recorded as “stable”.
The matching figures for `CCCCCCCCCCCCCCCC(=O)OCC(COP(=O)([O-])OCC[N+](C)(C)C)OC(=O)CCCCOCCCC[C@H](NC(=O)[C@H](C)NC(=O)[C@H](C)NC(C)=O)C(=O)N[C@@H](C)C(=O)N[C@@H](Cc1ccc(O)cc1)C(=O)O` (stereo partly shown) [Compound 3]: “poor water solubility” and “stable”.
For `CCCCCCCCCCCCCCCC(=O)OC[C@H](COP(=O)([O-])OCC[N+](C)(C)C)OC(=O)CCCCOCCCC[C@H](NC(=O)[C@@H](NC(=O)CNC(=O)[C@@H](NC(C)=O)[C@@H](C)O)[C@@H](C)O)C(=O)NCC(=O)N[C@@H](Cc1ccc(O)cc1)C(=O)O` [Compound 4], in that order: “poor water solubility” and “stable”.
`CCCCCCCCCCCCCCCC(=O)OC[C@H](COP(=O)([O-])OCC[N+](C)(C)C)OC(=O)CCCCN(C)CCCC[C@H](NC(=O)[C@@H](NC(C)=O)C(C)C)C(=O)NCC(=O)NCC(=O)O` [Compound 25]: the IC50 at CD36 macrophage receptor was found to be 55 µM.
For the molecule `CCCCCCCCCCCCCCCC(=O)OC[C@H](COP(=O)([O-])OCC[N+](C)(C)C)OC(=O)CCCCN(C)CCCC[C@H](NC(=O)[C@H](Cc1ccccc1)NC(=O)[C@H](C)NC(C)=O)C(=O)NCC(=O)NCC(=O)O` [Compound 27], the IC50 at CD36 macrophage receptor was found to be 47 µM.
Still for that read-out and setting: as for `CCCCCCCCCCCCCCCC(=O)OC[C@H](COP(=O)([O-])OCC[N+](C)(C)C)OC(=O)CCCCN(C)CCCC[C@H](NC(=O)[C@H](Cc1ccccc1)NC(C)=O)C(=O)NCC(=O)NCC(=O)O` [Compound 26], the figure is 47 µM.
Take `CCCCCCCCCCCCCCCC(=O)OC[C@H](COP(=O)([O-])OCC[N+](C)(C)C)OC(=O)CCCCN(C)CCCC[C@H](NC(C)=O)C(=O)NCC(=O)NCC(=O)O` [Compound 23]: on CD36 macrophage receptor (competitor serially diluted, fixed concentration of CuOxLDL, PBS buffer, J774 macrophages, read-out: IC50), the IC50 turned out to be 38 µM.
